Biological target: T1, TGR-1-expressing CHO cells (Homo sapiens, UniProt Q9GZQ4, A395T)
T1 construct: expressed in transfected cells; host or cells: CHO cells
Assay: Site sensor assay of extracellular acidification rate in TGR-1-expressing CHO cells versus mock CHO cells
Assay type: cell-based
Details: exposed to the cells for 7 minutes and 2 seconds; step-wise decreased concentrations; compared with mock CHO cells; 3 cycles before exposure set as 100%
Description: In the site sensor assay, pig Neuromedin U-8 at the concentrations indicated in FIG. 1 was reacted to TGR-1-expressing CHO cells (●) and mock CHO cells (◯) for 7 minutes and 2 seconds. The maximum of acidification rate during the reaction was plotted.
[10] TGR-1-expressing cells changes extracellular pH (acidification rate) in response to Neuromedin U. By measuring such change with a site sensor device (Molecular Device), the activity of Neuromedin U can be measured. The details of screening method for the compound that alters the binding between Neuromedin U and TGR-1 by measuring the extracellular pH change with the site sensor device are as follows.
TGR-1-expressing cells are cultivated in a capsule of the site sensor over night. […] After the pH becomes stable, measured is the pH change of the medium caused by refluxing the medium containing Neuromedin U or Neuromedin U and a test compound on the cells. An influence of the compound that alter the binding of Neuromedin U and TGR-1 can be measured by comparing the change of extracellular pH in TGR-1-expressing cells with that by the single administration of Neuromedin U. The compound that inhibits the change of extracellular pH by administrating Neuromedin U can be selected as a candidate substance that is capable of altering the binding property between Neuromedin U and TGR-1. […]

T1 sequence (Q9GZQ4 whole entry A395T): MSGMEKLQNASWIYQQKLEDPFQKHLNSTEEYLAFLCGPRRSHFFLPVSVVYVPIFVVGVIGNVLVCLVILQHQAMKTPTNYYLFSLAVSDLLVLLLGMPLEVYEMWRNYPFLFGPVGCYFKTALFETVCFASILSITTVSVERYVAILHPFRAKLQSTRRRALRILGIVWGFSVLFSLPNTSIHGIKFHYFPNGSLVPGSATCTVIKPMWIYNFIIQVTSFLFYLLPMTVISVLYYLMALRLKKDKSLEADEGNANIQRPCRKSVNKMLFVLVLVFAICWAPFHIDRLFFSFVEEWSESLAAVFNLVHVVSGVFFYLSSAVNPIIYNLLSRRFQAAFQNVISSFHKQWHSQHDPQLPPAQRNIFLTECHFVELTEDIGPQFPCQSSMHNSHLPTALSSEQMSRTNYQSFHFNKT

Pig Neuromedin U-8: Pig Neuromedin U-8 peptide of 8 amino acid residues (BACHEM, H-5505, SEQ ID NO:5), ligand of TGR-1
TGR-1 receptor-specific cell-stimulating activity (peak acidification rate, rate of change in extracellular pH): reacted to Neuromedin U in a specific and does-dependent manner

Reference: patent US7138249B2, “Screening method” (Takeda Pharmaceutical Company Limited, priority 2000, dated 2006)
